Target: Schlegelella thermodepolymerans KpsE (L77C, S138C) (Schlegelella thermodepolymerans)
Assay: cryo-EM structure; KpsMT(E151Q)-KpsE, co-expressed and purified in LMNG (100 mM NaCl, 50 mM Tris pH 7.5, 0.025% LMNG, 5 mM MgCl2), supplemented with 2 mM ATP before grid preparation

“Schlegelella thermodepolymerans KpsE (L77C, S138C) (natural protein)” gave a stoichiometry N of 8.

Source: article PMC11041684
